Data as given in the supplement of paper PMC10567573.

B1: JUNB (parent)
chain: FVKALDDLHKMNHVTPPNVSLGAT

Variants of: B1
Test: protein stability index of a GFP-peptide fusion (GPS, HEK-293T) (PSI 1-6); higher = more stable
Conditions: c terminus: a fixed tail appended
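Note: lentivirally expressed fusions sorted by FACS into six bins by GFP to DsRed ratio, PSI derived from sequencing read proportions per bin multiplied by bin number.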

For FVKALDDLHKMNHVTPPNTSLGAT [V19T], which protein stability index is on record?
Its protein stability index is 1.56.

For FVKALDDLHKMNHVTPPNVSLGFT [A23F], which protein stability index is on record?
Its protein stability index is 1.41.

Which protein stability index does the source give for FVKALDDLHKMNHVTPPNVSLGCT [A23C] here?
Its protein stability index is 2.16.

Which protein stability index does the source give for FVKALDDLHKMNHVTPPNVSLGQT [A23Q] here?
Its protein stability index is 1.46.

For FVKALDDLHKMNHVTPPNVSLGLT [A23L], which protein stability index is on record?
The protein stability index was 2.73.

For FVKALDDLHKMNHVTPPNVSLGDT [A23D], which protein stability index is on record?
Its protein stability index is 2.11.

With FVKALDDLHKMNHVTPPNVSLGNT [A23N] as the variant, how does the protein stability index read?
Its protein stability index is 2.02.

For FVKALDDLHKMNHVTPPNVSLGPT [A23P], which protein stability index is on record?
Its protein stability index is 2.46.

For FVKALDDLHKMNHVTPPNVSLGST [A23S], which protein stability index is on record?
The protein stability index was 2.05.

For FVKALDDLHKMNHVTPPNVSLGYT [A23Y], which protein stability index is on record?
Its protein stability index is 1.65.

Which protein stability index does the source give for FVKALDDLHKMNHVTPPNVSLGRT [A23R] here?
Its protein stability index is 2.39.

For FVKALDDLHKMNHVTPPNVSLGIT [A23I], which protein stability index is on record?
Its protein stability index is 1.77.

For FVKALDDLHKMNHVTPPNVSLGVT [A23V], which protein stability index is on record?
Its protein stability index is 2.

Which protein stability index does the source give for FVKALDDLHKMNHVTPPNVSLGKT [A23K] here?
Its protein stability index is 2.06.

For FVKALDDLHKMNHVTPPNVSLGWT [A23W], which protein stability index is on record?
The protein stability index was 1.72.

With FVKALDDLHKMNHVTPPNVSLGET [A23E] as the variant, how does the protein stability index read?
The protein stability index was 2.17.

Which protein stability index does the source give for FVKALDDLHKMNHVTPPNVSLGGT [A23G] here?
Its protein stability index is 1.27.

Which protein stability index does the source give for FVKALDDLHKMNHVTPPNVSLGHT [A23H] here?
Its protein stability index is 1.71.

Which protein stability index does the source give for FVKALDDLHKMNHVTPPNVSLGTT [A23T] here?
The protein stability index was 1.31.

With FVKALDDLHKMNHVTPPNVSLGMT [A23M] as the variant, how does the protein stability index read?
The protein stability index was 1.85.

For FVKALDDLHKMNHVTPPNVLLGAT [S20L], which protein stability index is on record?
The protein stability index was 1.56.

For FVKALDDLHKMNHVTPPNVDLGAT [S20D], which protein stability index is on record?
Its protein stability index is 1.72.

For FVKALDDLHKMNHVTPPNVGLGAT [S20G], which protein stability index is on record?
The protein stability index was 2.46.

For FVKALDDLHKMNHVTPPNVMLGAT [S20M], which protein stability index is on record?
Its protein stability index is 1.64.

For FVKALDDLHKMNHVTPPNVCLGAT [S20C], which protein stability index is on record?
The protein stability index was 1.83.

Which protein stability index does the source give for FVKALDDLHKMNHVTPPNVPLGAT [S20P] here?
The protein stability index was 2.12.

Which protein stability index does the source give for FVKALDDLHKMNHVTPPNVWLGAT [S20W] here?
The protein stability index was 3.23.

Which protein stability index does the source give for FVKALDDLHKMNHVTPPNVHLGAT [S20H] here?
Its protein stability index is 1.81.

For FVKALDDLHKMNHVTPPNVRLGAT [S20R], which protein stability index is on record?
The protein stability index was 2.33.

With FVKALDDLHKMNHVTPPNVKLGAT [S20K] as the variant, how does the protein stability index read?
The protein stability index was 2.81.

For FVKALDDLHKMNHVTPPNVQLGAT [S20Q], which protein stability index is on record?
The protein stability index was 1.7.

Which protein stability index does the source give for FVKALDDLHKMNHVTPPNVELGAT [S20E] here?
The protein stability index was 2.16.

For FVKALDDLHKMNHVTPPNVNLGAT [S20N], which protein stability index is on record?
Its protein stability index is 1.96.

With FVKALDDLHKMNHVTPPNVFLGAT [S20F] as the variant, how does the protein stability index read?
Its protein stability index is 1.39.

Which protein stability index does the source give for FVKALDDLHKMNHVTPPNVALGAT [S20A] here?
The protein stability index was 3.1.

With FVKALDDLHKMNHVTPPNVILGAT [S20I] as the variant, how does the protein stability index read?
Its protein stability index is 1.11.

With FVKALDDLHKMNHVTPPNVVLGAT [S20V] as the variant, how does the protein stability index read?
Its protein stability index is 1.77.

For FVKALDDLHKMNHVTPPNVYLGAT [S20Y], which protein stability index is on record?
The protein stability index was 3.04.

With FVKALDDLHKMNHVTPPNVTLGAT [S20T] as the variant, how does the protein stability index read?
Its protein stability index is 2.09.

With FVKALDDLHKMNHVTPPNVSLGAD [T24D] as the variant, how does the protein stability index read?
Its protein stability index is 1.86.

Which protein stability index does the source give for FVKALDDLHKMNHVTPPNVSLGAK [T24K] here?
The protein stability index was 1.75.

With FVKALDDLHKMNHVTPPNVSLGAA [T24A] as the variant, how does the protein stability index read?
Its protein stability index is 1.51.

With FVKALDDLHKMNHVTPPNVSLGAM [T24M] as the variant, how does the protein stability index read?
The protein stability index was 1.81.

Which protein stability index does the source give for FVKALDDLHKMNHVTPPNVSLGAE [T24E] here?
Its protein stability index is 2.52.

Which protein stability index does the source give for FVKALDDLHKMNHVTPPNVSLGAY [T24Y] here?
The protein stability index was 1.62.

Which protein stability index does the source give for FVKALDDLHKMNHVTPPNVSLGAI [T24I] here?
The protein stability index was 1.92.

Which protein stability index does the source give for FVKALDDLHKMNHVTPPNVSLGAH [T24H] here?
Its protein stability index is 1.83.

For FVKALDDLHKMNHVTPPNVSLGAR [T24R], which protein stability index is on record?
Its protein stability index is 1.33.

Which protein stability index does the source give for FVKALDDLHKMNHVTPPNVSLGAF [T24F] here?
Its protein stability index is 2.66.

Which protein stability index does the source give for FVKALDDLHKMNHVTPPNVSLGAC [T24C] here?
The protein stability index was 1.33.

Which protein stability index does the source give for FVKALDDLHKMNHVTPPNVSLGAV [T24V] here?
Its protein stability index is 2.46.

For FVKALDDLHKMNHVTPPNVSLGAQ [T24Q], which protein stability index is on record?
Its protein stability index is 1.83.

Which protein stability index does the source give for FVKALDDLHKMNHVTPPNVSLGAS [T24S] here?
The protein stability index was 2.

With FVKALDDLHKMNHVTPPNVSLGAN [T24N] as the variant, how does the protein stability index read?
Its protein stability index is 1.6.

For FVKALDDLHKMNHVTPPNVSLGAG [T24G], which protein stability index is on record?
The protein stability index was 1.56.

Which protein stability index does the source give for FVKALDDLHKMNHVTPPNVSLGAL [T24L] here?
Its protein stability index is 1.66.

With FVKALDDLHKMNHVTPPNVSLGAW [T24W] as the variant, how does the protein stability index read?
Its protein stability index is 1.54.

With FVKALDDLHKMNHVTPPNVSLDAT [G22D] as the variant, how does the protein stability index read?
Its protein stability index is 2.43.

For FVKALDDLHKMNHVTPPNVSLAAT [G22A], which protein stability index is on record?
The protein stability index was 1.85.

Which protein stability index does the source give for FVKALDDLHKMNHVTPPNVSLVAT [G22V] here?
Its protein stability index is 2.27.

With FVKALDDLHKMNHVTPPNVSLLAT [G22L] as the variant, how does the protein stability index read?
Its protein stability index is 2.5.

With FVKALDDLHKMNHVTPPNVSLFAT [G22F] as the variant, how does the protein stability index read?
Its protein stability index is 2.48.

With FVKALDDLHKMNHVTPPNVSLRAT [G22R] as the variant, how does the protein stability index read?
Its protein stability index is 1.2.

With FVKALDDLHKMNHVTPPNVSLCAT [G22C] as the variant, how does the protein stability index read?
Its protein stability index is 2.47.

With FVKALDDLHKMNHVTPPNVSLHAT [G22H] as the variant, how does the protein stability index read?
Its protein stability index is 1.54.

For FVKALDDLHKMNHVTPPNVSLPAT [G22P], which protein stability index is on record?
Its protein stability index is 2.15.

With FVKALDDLHKMNHVTPPNVSLNAT [G22N] as the variant, how does the protein stability index read?
The protein stability index was 2.28.

Which protein stability index does the source give for FVKALDDLHKMNHVTPPNVSLQAT [G22Q] here?
Its protein stability index is 2.66.

Which protein stability index does the source give for FVKALDDLHKMNHVTPPNVSLSAT [G22S] here?
The protein stability index was 2.16.

Which protein stability index does the source give for FVKALDDLHKMNHVTPPNVSLMAT [G22M] here?
The protein stability index was 1.72.

With FVKALDDLHKMNHVTPPNVSLKAT [G22K] as the variant, how does the protein stability index read?
Its protein stability index is 1.46.

Which protein stability index does the source give for FVKALDDLHKMNHVTPPNVSLYAT [G22Y] here?
Its protein stability index is 1.24.

With FVKALDDLHKMNHVTPPNVSLIAT [G22I] as the variant, how does the protein stability index read?
The protein stability index was 2.41.

For FVKALDDLHKMNHVTPPNVSLTAT [G22T], which protein stability index is on record?
Its protein stability index is 1.82.

For FVKALDDLHKMNHVTPPNVSLEAT [G22E], which protein stability index is on record?
Its protein stability index is 2.12.

With FVKALDDLHKMNHVTPPNVSNGAT [L21N] as the variant, how does the protein stability index read?
Its protein stability index is 1.89.

For FVKALDDLHKMNHVTPPNVSTGAT [L21T], which protein stability index is on record?
The protein stability index was 1.78.

For FVKALDDLHKMNHVTPPNVSAGAT [L21A], which protein stability index is on record?
The protein stability index was 2.17.

With FVKALDDLHKMNHVTPPNVSFGAT [L21F] as the variant, how does the protein stability index read?
The protein stability index was 2.09.

With FVKALDDLHKMNHVTPPNVSVGAT [L21V] as the variant, how does the protein stability index read?
The protein stability index was 1.65.

Which protein stability index does the source give for FVKALDDLHKMNHVTPPNVSYGAT [L21Y] here?
Its protein stability index is 1.52.

With FVKALDDLHKMNHVTPPNVSQGAT [L21Q] as the variant, how does the protein stability index read?
The protein stability index was 2.36.

Which protein stability index does the source give for FVKALDDLHKMNHVTPPNVSRGAT [L21R] here?
The protein stability index was 2.15.

For FVKALDDLHKMNHVTPPNVSEGAT [L21E], which protein stability index is on record?
The protein stability index was 2.9.

With FVKALDDLHKMNHVTPPNVSGGAT [L21G] as the variant, how does the protein stability index read?
The protein stability index was 2.54.

With FVKALDDLHKMNHVTPPNVSWGAT [L21W] as the variant, how does the protein stability index read?
Its protein stability index is 1.95.

Which protein stability index does the source give for FVKALDDLHKMNHVTPPNVSMGAT [L21M] here?
Its protein stability index is 2.16.

With FVKALDDLHKMNHVTPPNVSKGAT [L21K] as the variant, how does the protein stability index read?
Its protein stability index is 2.44.

For FVKALDDLHKMNHVTPPNVSSGAT [L21S], which protein stability index is on record?
Its protein stability index is 2.25.

With FVKALDDLHKMNHVTPPNVSIGAT [L21I] as the variant, how does the protein stability index read?
The protein stability index was 1.9.

With FVKALDDLHKMNHVTPPNVSDGAT [L21D] as the variant, how does the protein stability index read?
Its protein stability index is 2.51.

For FVKALDDLHKMNHVTPPNVSPGAT [L21P], which protein stability index is on record?
The protein stability index was 1.96.

Which protein stability index does the source give for FVKALDDLHKMNHVTPPNVSHGAT [L21H] here?
The protein stability index was 1.74.

Which protein stability index does the source give for FVKALDDLHKMNHVTPPNVSCGAT [L21C] here?
The protein stability index was 1.38.
